# According to patent publication US12679878B2, “CRF2 receptor agonists and their use in therapy” (SANOFI, priority 2020, dated 2026):
# Starred links: 1 amine or outer side, 2 acyl side, 3 side chain; linkers in the order of their positions; H or OH if unused. Non-standard residues stand in square brackets, D forms with d. Groups on a side chain read outwards from the residue. No end group written: not given here. *: point of attachment. C18 diacid = O=C(O)CCCCCCCCCCCCCCCCC(=O)*; γGlu = O=C(O)[C@H](CCC(=O)[*:2])N[*:1]; Palmitoyl = CCCCCCCCCCCCCCCC(=O)*; AEEA = NCCOCCOCC(=O)O
# Biological target: human corticotropin-releasing factor 2α (CRF2 α receptor) (human), Q13324
# Sequence (Q13324 20-411): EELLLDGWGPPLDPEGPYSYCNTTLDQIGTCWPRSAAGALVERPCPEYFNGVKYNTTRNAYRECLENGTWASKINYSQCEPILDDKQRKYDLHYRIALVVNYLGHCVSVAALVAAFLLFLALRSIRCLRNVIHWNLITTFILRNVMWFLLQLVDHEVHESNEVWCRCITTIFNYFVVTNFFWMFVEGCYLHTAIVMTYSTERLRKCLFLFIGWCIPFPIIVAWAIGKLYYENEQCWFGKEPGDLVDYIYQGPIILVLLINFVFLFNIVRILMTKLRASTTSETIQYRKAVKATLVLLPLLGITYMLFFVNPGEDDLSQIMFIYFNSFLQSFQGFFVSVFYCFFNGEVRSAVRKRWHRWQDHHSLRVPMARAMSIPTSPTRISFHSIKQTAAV
# Experiment: cell-based or functional assay
Binder,"EC50 [nM], 0% HSA [nM]","EC50 [nM], 0.1% HSA [nM]"
IVLSLD[dV]PIKLK([AEEA-AEEA-γGlu-C18 diacid])QILLKQERQKKQREQAEKNKQILEQV-NH2 (N-terminus assumed; SMILES CC[C@H](C)[C@H](N)C(=O)N[C@H](C(=O)N[C@@H](CC(C)C)C(=O)N[C@@H](CO)C(=O)N[C@@H](CC(C)C)C(=O)N[C@@H](CC(=O)O)C(=O)N[C@@H](C(=O)N1CCC[C@H]1C(=O)N[C@H](C(=O)N[C@@H](CCCCN)C(=O)N[C@@H](CC(C)C)C(=O)N[C@@H](CCCCNC(=O)COCCOCCNC(=O)COCCOCCNC(=O)CC[C@H](NC(=O)CCCCCCCCCCCCCCCCC(=O)O)C(=O)O)C(=O)N[C@@H](CCC(N)=O)C(=O)N[C@H](C(=O)N[C@@H](CC(C)C)C(=O)N[C@@H](CC(C)C)C(=O)N[C@@H](CCCCN)C(=O)N[C@@H](CCC(N)=O)C(=O)N[C@@H](CCC(=O)O)C(=O)N[C@@H](CCCNC(=N)N)C(=O)N[C@@H](CCC(N)=O)C(=O)N[C@@H](CCCCN)C(=O)N[C@@H](CCCCN)C(=O)N[C@@H](CCC(N)=O)C(=O)N[C@@H](CCCNC(=N)N)C(=O)N[C@@H](CCC(=O)O)C(=O)N[C@@H](CCC(N)=O)C(=O)N[C@@H](C)C(=O)N[C@@H](CCC(=O)O)C(=O)N[C@@H](CCCCN)C(=O)N[C@@H](CC(N)=O)C(=O)N[C@@H](CCCCN)C(=O)N[C@@H](CCC(N)=O)C(=O)N[C@H](C(=O)N[C@@H](CC(C)C)C(=O)N[C@@H](CCC(=O)O)C(=O)N[C@@H](CCC(N)=O)C(=O)N[C@H](C(N)=O)C(C)C)[C@@H](C)CC)[C@@H](C)CC)[C@@H](C)CC)C(C)C)C(C)C) [SEQ ID NO: 137],0.04,1.78
IVLSLD[dV]PIKLK([AEEA-AEEA-γGlu-C18 diacid])QILLKQERQKKQREKAEKNKQILAQV-NH2 (N-terminus assumed; SMILES CC[C@H](C)[C@H](N)C(=O)N[C@H](C(=O)N[C@@H](CC(C)C)C(=O)N[C@@H](CO)C(=O)N[C@@H](CC(C)C)C(=O)N[C@@H](CC(=O)O)C(=O)N[C@@H](C(=O)N1CCC[C@H]1C(=O)N[C@H](C(=O)N[C@@H](CCCCN)C(=O)N[C@@H](CC(C)C)C(=O)N[C@@H](CCCCNC(=O)COCCOCCNC(=O)COCCOCCNC(=O)CC[C@H](NC(=O)CCCCCCCCCCCCCCCCC(=O)O)C(=O)O)C(=O)N[C@@H](CCC(N)=O)C(=O)N[C@H](C(=O)N[C@@H](CC(C)C)C(=O)N[C@@H](CC(C)C)C(=O)N[C@@H](CCCCN)C(=O)N[C@@H](CCC(N)=O)C(=O)N[C@@H](CCC(=O)O)C(=O)N[C@@H](CCCNC(=N)N)C(=O)N[C@@H](CCC(N)=O)C(=O)N[C@@H](CCCCN)C(=O)N[C@@H](CCCCN)C(=O)N[C@@H](CCC(N)=O)C(=O)N[C@@H](CCCNC(=N)N)C(=O)N[C@@H](CCC(=O)O)C(=O)N[C@@H](CCCCN)C(=O)N[C@@H](C)C(=O)N[C@@H](CCC(=O)O)C(=O)N[C@@H](CCCCN)C(=O)N[C@@H](CC(N)=O)C(=O)N[C@@H](CCCCN)C(=O)N[C@@H](CCC(N)=O)C(=O)N[C@H](C(=O)N[C@@H](CC(C)C)C(=O)N[C@@H](C)C(=O)N[C@@H](CCC(N)=O)C(=O)N[C@H](C(N)=O)C(C)C)[C@@H](C)CC)[C@@H](C)CC)[C@@H](C)CC)C(C)C)C(C)C) [SEQ ID NO: 138],0.06,3.12
FTLSLDVPTKIK([γGlu-Palmitoyl])QKLLKQEKQRKQKQKAKTNAKILARV-NH2 (N-terminus assumed; SMILES CCCCCCCCCCCCCCCC(=O)N[C@@H](CCC(=O)NCCCC[C@H](NC(=O)[C@@H](NC(=O)[C@H](CCCCN)NC(=O)[C@@H](NC(=O)[C@@H]1CCCN1C(=O)[C@@H](NC(=O)[C@H](CC(=O)O)NC(=O)[C@H](CC(C)C)NC(=O)[C@H](CO)NC(=O)[C@H](CC(C)C)NC(=O)[C@@H](NC(=O)[C@@H](N)Cc1ccccc1)[C@@H](C)O)C(C)C)[C@@H](C)O)[C@@H](C)CC)C(=O)N[C@@H](CCC(N)=O)C(=O)N[C@@H](CCCCN)C(=O)N[C@@H](CC(C)C)C(=O)N[C@@H](CC(C)C)C(=O)N[C@@H](CCCCN)C(=O)N[C@@H](CCC(N)=O)C(=O)N[C@@H](CCC(=O)O)C(=O)N[C@@H](CCCCN)C(=O)N[C@@H](CCC(N)=O)C(=O)N[C@@H](CCCNC(=N)N)C(=O)N[C@@H](CCCCN)C(=O)N[C@@H](CCC(N)=O)C(=O)N[C@@H](CCCCN)C(=O)N[C@@H](CCC(N)=O)C(=O)N[C@@H](CCCCN)C(=O)N[C@@H](C)C(=O)N[C@@H](CCCCN)C(=O)N[C@H](C(=O)N[C@@H](CC(N)=O)C(=O)N[C@@H](C)C(=O)N[C@@H](CCCCN)C(=O)N[C@H](C(=O)N[C@@H](CC(C)C)C(=O)N[C@@H](C)C(=O)N[C@@H](CCCNC(=N)N)C(=O)N[C@H](C(N)=O)C(C)C)[C@@H](C)CC)[C@@H](C)O)C(=O)O) [SEQ ID NO: 14],0.18,–
IVLSLD[dV]PIKLK([AEEA-AEEA-γGlu-C18 diacid])QILLKQERQKKQRQQAEKNKQILAQV-NH2 (N-terminus assumed; SMILES CC[C@H](C)[C@H](N)C(=O)N[C@H](C(=O)N[C@@H](CC(C)C)C(=O)N[C@@H](CO)C(=O)N[C@@H](CC(C)C)C(=O)N[C@@H](CC(=O)O)C(=O)N[C@@H](C(=O)N1CCC[C@H]1C(=O)N[C@H](C(=O)N[C@@H](CCCCN)C(=O)N[C@@H](CC(C)C)C(=O)N[C@@H](CCCCNC(=O)COCCOCCNC(=O)COCCOCCNC(=O)CC[C@H](NC(=O)CCCCCCCCCCCCCCCCC(=O)O)C(=O)O)C(=O)N[C@@H](CCC(N)=O)C(=O)N[C@H](C(=O)N[C@@H](CC(C)C)C(=O)N[C@@H](CC(C)C)C(=O)N[C@@H](CCCCN)C(=O)N[C@@H](CCC(N)=O)C(=O)N[C@@H](CCC(=O)O)C(=O)N[C@@H](CCCNC(=N)N)C(=O)N[C@@H](CCC(N)=O)C(=O)N[C@@H](CCCCN)C(=O)N[C@@H](CCCCN)C(=O)N[C@@H](CCC(N)=O)C(=O)N[C@@H](CCCNC(=N)N)C(=O)N[C@@H](CCC(N)=O)C(=O)N[C@@H](CCC(N)=O)C(=O)N[C@@H](C)C(=O)N[C@@H](CCC(=O)O)C(=O)N[C@@H](CCCCN)C(=O)N[C@@H](CC(N)=O)C(=O)N[C@@H](CCCCN)C(=O)N[C@@H](CCC(N)=O)C(=O)N[C@H](C(=O)N[C@@H](CC(C)C)C(=O)N[C@@H](C)C(=O)N[C@@H](CCC(N)=O)C(=O)N[C@H](C(N)=O)C(C)C)[C@@H](C)CC)[C@@H](C)CC)[C@@H](C)CC)C(C)C)C(C)C) [SEQ ID NO: 139],0.03,1.31
